Laboratory results: the supplement of paper PMC10065799, “High-throughput profiling of sequence recognition by tyrosine kinases and SH2 domains using bacterial peptide display” (eLife, 2023)

How the values were obtained:
[1] = system: AncSZ; test: phosphorylation enrichment, bacterial display (enrichment ratio); higher = better substrate or ligand; peptides without Tyr show the background
[2] = biological target: EPHB1 (UniProt P54762); test: as above
[3] = biological target: EPHB2 (UniProt P29323); test: as above
Chain of EPHB2 (P29323 whole entry, looked up): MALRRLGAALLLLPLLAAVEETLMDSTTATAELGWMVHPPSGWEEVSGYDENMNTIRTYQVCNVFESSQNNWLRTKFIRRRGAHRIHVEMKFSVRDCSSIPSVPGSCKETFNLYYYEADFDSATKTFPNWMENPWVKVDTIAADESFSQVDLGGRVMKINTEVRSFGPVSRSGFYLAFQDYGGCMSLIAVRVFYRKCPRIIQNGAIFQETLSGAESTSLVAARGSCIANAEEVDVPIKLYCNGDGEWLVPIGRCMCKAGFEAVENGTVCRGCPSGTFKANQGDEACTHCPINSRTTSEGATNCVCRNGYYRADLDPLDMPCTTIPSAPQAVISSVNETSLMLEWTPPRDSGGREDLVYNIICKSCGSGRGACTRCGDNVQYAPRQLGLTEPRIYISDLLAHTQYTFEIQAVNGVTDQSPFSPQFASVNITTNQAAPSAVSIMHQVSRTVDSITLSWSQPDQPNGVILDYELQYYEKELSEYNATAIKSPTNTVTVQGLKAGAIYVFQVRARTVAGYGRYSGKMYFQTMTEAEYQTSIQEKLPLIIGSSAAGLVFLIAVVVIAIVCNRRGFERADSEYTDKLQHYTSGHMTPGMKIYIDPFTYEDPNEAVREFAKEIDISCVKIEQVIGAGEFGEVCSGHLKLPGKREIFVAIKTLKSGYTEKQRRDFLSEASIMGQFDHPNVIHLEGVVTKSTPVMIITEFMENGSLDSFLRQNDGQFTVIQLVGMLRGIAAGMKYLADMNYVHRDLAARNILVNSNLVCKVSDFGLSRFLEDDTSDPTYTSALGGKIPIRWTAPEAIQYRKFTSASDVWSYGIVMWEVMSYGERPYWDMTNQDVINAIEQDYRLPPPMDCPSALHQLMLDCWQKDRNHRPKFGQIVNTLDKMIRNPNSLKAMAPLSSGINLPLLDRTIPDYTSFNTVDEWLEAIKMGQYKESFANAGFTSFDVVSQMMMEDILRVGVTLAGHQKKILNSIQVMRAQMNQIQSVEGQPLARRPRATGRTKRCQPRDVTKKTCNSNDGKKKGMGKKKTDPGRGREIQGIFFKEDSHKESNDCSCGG

[4] = biological target: FGFR1 (UniProt P11362); test: as above
Chain of FGFR1 (P11362 whole entry, looked up): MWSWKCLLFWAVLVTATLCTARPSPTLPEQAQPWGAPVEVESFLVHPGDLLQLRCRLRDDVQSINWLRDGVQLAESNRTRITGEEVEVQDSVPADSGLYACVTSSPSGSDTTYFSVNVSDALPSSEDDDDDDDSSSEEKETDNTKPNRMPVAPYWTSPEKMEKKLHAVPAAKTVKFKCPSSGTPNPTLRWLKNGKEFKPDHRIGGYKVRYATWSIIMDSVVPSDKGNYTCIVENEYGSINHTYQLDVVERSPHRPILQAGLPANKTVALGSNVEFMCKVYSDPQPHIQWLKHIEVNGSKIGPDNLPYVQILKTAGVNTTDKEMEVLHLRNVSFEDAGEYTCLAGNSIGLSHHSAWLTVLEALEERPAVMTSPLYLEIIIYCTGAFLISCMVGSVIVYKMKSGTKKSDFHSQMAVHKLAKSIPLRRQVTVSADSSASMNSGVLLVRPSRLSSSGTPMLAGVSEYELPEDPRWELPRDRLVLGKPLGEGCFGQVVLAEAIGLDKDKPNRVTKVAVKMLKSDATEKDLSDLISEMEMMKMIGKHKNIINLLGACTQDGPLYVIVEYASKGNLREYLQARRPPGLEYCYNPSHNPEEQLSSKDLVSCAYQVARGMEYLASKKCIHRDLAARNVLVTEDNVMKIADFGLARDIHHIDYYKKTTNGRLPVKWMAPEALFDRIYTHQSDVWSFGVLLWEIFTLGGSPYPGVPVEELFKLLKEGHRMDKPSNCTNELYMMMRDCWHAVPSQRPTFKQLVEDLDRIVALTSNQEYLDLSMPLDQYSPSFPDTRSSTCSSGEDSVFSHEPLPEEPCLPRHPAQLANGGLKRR

[5] = biological target: FGFR3 (UniProt P22607); test: as above
[6] = system: Fer (mouse); test: as above
[7] = biological target: Fes (UniProt P07332); test: as above
Chain of Fes (P07332 whole entry, looked up): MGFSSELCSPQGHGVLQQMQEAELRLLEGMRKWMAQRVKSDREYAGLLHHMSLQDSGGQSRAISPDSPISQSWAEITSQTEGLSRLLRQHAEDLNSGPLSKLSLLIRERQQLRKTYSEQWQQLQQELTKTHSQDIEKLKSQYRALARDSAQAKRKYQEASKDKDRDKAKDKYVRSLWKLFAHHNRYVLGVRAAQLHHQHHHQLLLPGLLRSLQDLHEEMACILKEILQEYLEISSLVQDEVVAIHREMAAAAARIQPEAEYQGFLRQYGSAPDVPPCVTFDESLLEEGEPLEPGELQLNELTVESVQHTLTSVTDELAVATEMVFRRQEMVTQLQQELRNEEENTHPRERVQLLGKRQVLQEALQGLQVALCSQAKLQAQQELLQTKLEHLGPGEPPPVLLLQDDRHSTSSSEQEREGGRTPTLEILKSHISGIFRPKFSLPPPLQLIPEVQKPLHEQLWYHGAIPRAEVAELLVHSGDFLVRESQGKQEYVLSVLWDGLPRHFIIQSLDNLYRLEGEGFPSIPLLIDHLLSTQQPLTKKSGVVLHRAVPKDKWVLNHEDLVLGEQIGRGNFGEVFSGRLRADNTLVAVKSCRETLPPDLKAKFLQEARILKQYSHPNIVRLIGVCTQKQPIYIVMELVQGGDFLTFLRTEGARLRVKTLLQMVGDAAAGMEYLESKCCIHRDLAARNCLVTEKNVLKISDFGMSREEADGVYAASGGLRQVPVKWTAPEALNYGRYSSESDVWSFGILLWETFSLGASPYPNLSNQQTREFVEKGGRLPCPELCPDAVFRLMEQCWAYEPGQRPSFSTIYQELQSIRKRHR

[8] = biological target: Fyn (UniProt P06241); test: as above
Chain of Fyn (P06241 whole entry, looked up): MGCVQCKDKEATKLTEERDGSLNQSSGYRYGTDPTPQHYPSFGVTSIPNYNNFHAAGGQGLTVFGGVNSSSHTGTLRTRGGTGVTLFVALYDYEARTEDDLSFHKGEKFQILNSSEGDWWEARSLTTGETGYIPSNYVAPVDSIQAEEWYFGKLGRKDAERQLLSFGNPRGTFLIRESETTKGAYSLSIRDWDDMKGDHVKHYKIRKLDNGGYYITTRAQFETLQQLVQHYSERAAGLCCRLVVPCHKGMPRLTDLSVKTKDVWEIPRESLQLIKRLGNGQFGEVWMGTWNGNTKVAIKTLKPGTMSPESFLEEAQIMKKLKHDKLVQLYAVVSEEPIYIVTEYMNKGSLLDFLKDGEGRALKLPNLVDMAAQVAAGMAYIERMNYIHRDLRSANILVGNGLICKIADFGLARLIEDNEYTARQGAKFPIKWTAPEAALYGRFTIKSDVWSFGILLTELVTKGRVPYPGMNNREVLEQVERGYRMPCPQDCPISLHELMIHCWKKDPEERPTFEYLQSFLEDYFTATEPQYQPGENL

[9] = biological target: Hck (UniProt P08631); test: as above
Chain of Hck (P08631 whole entry, looked up): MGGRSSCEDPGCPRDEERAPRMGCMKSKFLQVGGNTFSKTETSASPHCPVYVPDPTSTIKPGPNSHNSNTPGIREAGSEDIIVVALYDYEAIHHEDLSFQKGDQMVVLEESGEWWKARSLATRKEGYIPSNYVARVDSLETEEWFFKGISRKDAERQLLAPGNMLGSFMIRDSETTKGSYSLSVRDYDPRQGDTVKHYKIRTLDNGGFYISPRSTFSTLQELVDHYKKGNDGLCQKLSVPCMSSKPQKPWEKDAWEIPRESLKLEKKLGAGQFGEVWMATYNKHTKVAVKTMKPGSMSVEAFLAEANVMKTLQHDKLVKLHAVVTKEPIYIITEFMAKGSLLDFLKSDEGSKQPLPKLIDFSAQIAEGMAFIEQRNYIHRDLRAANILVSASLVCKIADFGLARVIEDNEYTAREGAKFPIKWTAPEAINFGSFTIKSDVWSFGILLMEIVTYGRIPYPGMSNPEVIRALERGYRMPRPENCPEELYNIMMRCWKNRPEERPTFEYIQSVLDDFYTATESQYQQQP

[10] = biological target: Jak2 (UniProt O60674); test: as above
Chain of Jak2 (O60674 whole entry, looked up): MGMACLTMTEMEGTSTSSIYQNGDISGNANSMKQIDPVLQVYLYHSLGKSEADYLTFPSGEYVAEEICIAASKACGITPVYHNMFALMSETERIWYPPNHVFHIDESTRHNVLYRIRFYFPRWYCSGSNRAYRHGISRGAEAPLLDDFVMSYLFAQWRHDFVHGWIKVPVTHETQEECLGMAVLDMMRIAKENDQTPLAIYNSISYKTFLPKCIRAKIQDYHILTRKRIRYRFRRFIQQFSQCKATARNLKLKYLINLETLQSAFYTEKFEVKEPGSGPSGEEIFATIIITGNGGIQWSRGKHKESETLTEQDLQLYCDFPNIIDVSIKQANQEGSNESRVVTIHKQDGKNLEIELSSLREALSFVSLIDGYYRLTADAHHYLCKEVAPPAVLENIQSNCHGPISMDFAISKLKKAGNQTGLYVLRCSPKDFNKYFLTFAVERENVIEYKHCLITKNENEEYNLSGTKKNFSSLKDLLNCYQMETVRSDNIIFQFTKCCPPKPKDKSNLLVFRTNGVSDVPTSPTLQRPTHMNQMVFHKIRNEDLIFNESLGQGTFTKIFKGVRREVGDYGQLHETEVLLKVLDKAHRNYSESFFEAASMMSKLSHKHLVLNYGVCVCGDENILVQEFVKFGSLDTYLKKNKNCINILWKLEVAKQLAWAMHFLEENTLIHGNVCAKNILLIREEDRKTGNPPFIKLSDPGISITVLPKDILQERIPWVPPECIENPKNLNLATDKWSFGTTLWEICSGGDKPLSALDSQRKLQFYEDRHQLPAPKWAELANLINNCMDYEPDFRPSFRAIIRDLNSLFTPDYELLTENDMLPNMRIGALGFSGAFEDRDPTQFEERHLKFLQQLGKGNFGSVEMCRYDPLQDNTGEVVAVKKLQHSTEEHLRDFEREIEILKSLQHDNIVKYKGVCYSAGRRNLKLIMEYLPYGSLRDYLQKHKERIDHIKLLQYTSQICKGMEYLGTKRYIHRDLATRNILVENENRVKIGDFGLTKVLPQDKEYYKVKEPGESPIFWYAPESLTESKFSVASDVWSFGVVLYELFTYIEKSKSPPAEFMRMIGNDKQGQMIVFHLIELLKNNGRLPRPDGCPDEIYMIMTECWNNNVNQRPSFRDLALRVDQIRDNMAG

[11] = biological target: MERTK (UniProt Q12866); test: as above
[12] = system: c-Abl (mouse); test: as above
[13] = system: c-Src; test: as above
[14] = biological target: Grb2 SH2 (UniProt P62993); test: SH2 binding enrichment of the phosphorylated peptide, bacterial display (enrichment ratio); higher = better substrate or ligand; peptides without Tyr show the background
[15] = biological target: SHP2-C SH2; test: as above
[16] = biological target: c-Src SH2; test: as above
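Throughout, for SH2 binding enrichment of the phosphorylated peptide, bacterial display: peptide library displayed on the E. coli surface as eCPX fusions, selected cells deep-sequenced, score is each peptide's frequency after selection divided by its frequency in the input.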
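Throughout, for phosphorylation enrichment, bacterial display: 11-residue human phosphosite peptides and single-mutation variants displayed on the E. coli surface, counted by deep sequencing, each peptide's frequency after selection divided by its frequency in the unselected input library; frequency after pTyr selection over input frequency; kinase dosed for 20-30% of maximal phosphorylation in three min.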

Row | Sequence | SH2 binding enrichment [14] | SH2 binding enrichment [15] | SH2 binding enrichment [16] | phosphorylation enrichment [1] | phosphorylation enrichment [2] | phosphorylation enrichment [3] | phosphorylation enrichment [4] | phosphorylation enrichment [5] | phosphorylation enrichment [6] | phosphorylation enrichment [7] | phosphorylation enrichment [8] | phosphorylation enrichment [9] | phosphorylation enrichment [10] | phosphorylation enrichment [11] | phosphorylation enrichment [12] | phosphorylation enrichment [13]
1 | DSLASYLDKVR [KRT10_Y160_R156S] | 0.867 | 0.772 | 0.579 | 0.701 | 0.491 | 0.4 | 0.5 | 0.558 | 0.416 | 0.78 | 0.448 | 0.469 | 0.682 | 0.46 | 0.629 | 0.46
2 | EQLRAYLEGEC [HLA-C_Y183_T187E] | 0.783 | 0.664 | 0.502 | 1.3 | 0.775 | 0.623 | 0.514 | 0.949 | 0.537 | 1.25 | 0.548 | 0.533 | 1.14 | 0.51 | 1.15 | 0.465
3 | LVSCTYQLATG [FGFR2_Y608_R612T] | 0.729 | 0.739 | 0.456 | 1.41 | 0.717 | 0.668 | 0.559 | 0.764 | 0.615 | 1.3 | 0.596 | 0.631 | 1.05 | 0.546 | 0.83 | 0.952
4 | GNLLIYTDFGK [HGD_Y166_E168D] | 0.891 | 0.822 | 0.765 | 1.08 | 3.06 | 1.27 | 0.682 | 0.702 | 0.726 | 1.27 | 4.75 | 3.49 | 1.09 | 3.44 | 1.53 | 4.63
5 | VRVQLYDPDYM [CYP4A22_Y100] | 1.08 | 1.45 | 0.545 | 1.56 | 1.27 | 0.776 | 0.538 | 0.741 | 0.599 | 1.27 | 0.493 | 0.807 | 1.15 | 0.887 | 0.79 | 0.615
6 | RAFSWYQHQRA [NDST1_Y714_YF] | 1.23 | 1.23 | 0.934 | 1.54 | 0.74 | 0.855 | 0.763 | 1 | 0.794 | 1.72 | 0.769 | 0.611 | 1.25 | 0.424 | 1.09 | 0.489
7 | SLNAVYPKAGS [OAS3_Y376_R378K] | 0.841 | 0.76 | 0.456 | 0.562 | 0.296 | 0.383 | 0.427 | 0.443 | 0.412 | 0.515 | 0.395 | 0.422 | 0.474 | 0.417 | 0.467 | 0.473
8 | QSSALYEDRFL [ASS1_Y83_YF] | 0.835 | 0.471 | 0.65 | 1.19 | 4.13 | 1.86 | 0.781 | 1.01 | 10.1 | 1.53 | 1.48 | 6.48 | 1.23 | 1.24 | 1.08 | 2.02
9 | TSHKGYVAFLE [CARD9_Y76_G72S] | 0.877 | 0.724 | 2.64 | 0.707 | 0.451 | 0.404 | 0.477 | 0.554 | 0.315 | 0.762 | 0.353 | 0.38 | 0.676 | 0.38 | 0.602 | 0.354
10 | YDGKDYIALKE [HLA-A_Y147_N151K] | 0.891 | 0.648 | 0.495 | 1.12 | 0.669 | 0.648 | 0.702 | 0.739 | 0.49 | 0.913 | 0.493 | 0.49 | 1.03 | 0.439 | 0.72 | 0.377
11 | IRSGIYYKPES [L2HGDH_Y102_H98R] | 0.712 | 0.419 | 0.697 | 0.899 | 0.982 | 0.753 | 0.745 | 0.735 | 0.465 | 0.687 | 1.97 | 2.6 | 1.26 | 9.7 | 8.79 | 1.51
12 | SRWKLYPRMLR [HAO1_Y50] | 0.79 | 0.585 | 0.392 | 0.81 | 0.478 | 0.442 | 0.394 | 0.482 | 0.341 | 0.619 | 0.405 | 0.415 | 0.873 | 0.447 | 0.524 | 0.442
13 | WRPFGYPRCRR [BCS1L_Y181_R184C] | 0.714 | 0.39 | 0.459 | 0.599 | 0.444 | 0.478 | 0.505 | 0.459 | 0.447 | 0.509 | 0.498 | 0.454 | 0.485 | 0.505 | 0.403 | 0.528
14 | SLNAVYPRAGR [OAS3_Y376_S381R] | 0.851 | 0.63 | 0.466 | 0.763 | 0.354 | 0.414 | 0.415 | 0.445 | 0.384 | 0.692 | 0.471 | 0.405 | 0.655 | 0.409 | 0.488 | 0.525
15 | LGLDEYLDKLK [FMNL2_Y352] | 0.78 | 0.662 | 0.588 | 1.47 | 0.716 | 0.816 | 0.536 | 0.971 | 0.933 | 1.27 | 0.394 | 0.587 | 1.71 | 0.569 | 0.982 | 0.375
16 | QAYSWYQHQRA [NDST1_Y714_R709Q] | 1.23 | 1.17 | 1.08 | 1.13 | 0.701 | 0.901 | 1.22 | 0.883 | 6.78 | 1.01 | 0.516 | 0.782 | 1.1 | 3.85 | 0.8 | 0.642
17 | TPLSAYQIPRT [GAB2_Y324] | 1.04 | 0.853 | 0.792 | 0.593 | 0.415 | 0.466 | 0.408 | 0.317 | 0.586 | 0.539 | 0.365 | 0.29 | 0.615 | 0.703 | 8.8 | 0.435
18 | SFLSYYTSHVQ [NEFL_Y443_P440L] | 1.17 | 3.81 | 2.51 | 1.01 | 1.26 | 1.01 | 1.04 | 1.01 | 0.583 | 1.1 | 0.585 | 0.794 | 2.1 | 2.19 | 0.828 | 0.936

Continued, in another order:

Row | SH2 binding enrichment [14] | SH2 binding enrichment [15] | SH2 binding enrichment [16] | Sequence | phosphorylation enrichment [1] | phosphorylation enrichment [2] | phosphorylation enrichment [3] | phosphorylation enrichment [4] | phosphorylation enrichment [5] | phosphorylation enrichment [6] | phosphorylation enrichment [7] | phosphorylation enrichment [8] | phosphorylation enrichment [9] | phosphorylation enrichment [10] | phosphorylation enrichment [11] | phosphorylation enrichment [12] | phosphorylation enrichment [13]
19 | 1.12 | 1.02 | 0.628 | QNVADYMRYLM [RPL5_Y207] | 1.49 | 1.98 | 1.16 | 1.07 | 0.893 | 0.736 | 1.96 | 0.723 | 0.736 | 0.994 | 0.523 | 0.682 | 0.684
20 | 1.03 | 0.997 | 0.67 | SVVVPYEPPEG [TP53_Y220_V225G] | 1.02 | 0.685 | 0.492 | 0.533 | 0.714 | 0.445 | 0.929 | 0.525 | 0.503 | 1.01 | 0.559 | 0.633 | 0.446
21 | 0.885 | 1.62 | 5.53 | FLRTGYSVPFG [TGM1_Y370_YF] | 0.875 | 0.523 | 0.515 | 0.504 | 0.632 | 0.466 | 0.955 | 0.729 | 0.461 | 0.929 | 0.561 | 0.945 | 0.53
22 | 1.01 | 2.11 | 9.77 | YLRTGYSIPYG [TGM1_Y370_V372I] | 0.777 | 0.451 | 0.461 | 0.554 | 0.574 | 0.384 | 0.677 | 0.375 | 0.39 | 0.804 | 1.21 | 0.702 | 0.457
23 | 0.716 | 0.73 | 1.56 | GTTIHYNYMCN [TP53_Y234_C229G] | 1.12 | 0.834 | 0.704 | 0.619 | 0.973 | 0.656 | 1.37 | 0.614 | 0.673 | 1.22 | 0.585 | 0.814 | 0.529
24 | 1.14 | 0.767 | 0.402 | RRQDLYSARDL [SART1_Y249] | 1.45 | 0.576 | 0.367 | 0.586 | 0.615 | 0.401 | 0.744 | 0.972 | 5.63 | 0.663 | 1.55 | 0.525 | 1.21
25 | 0.813 | 0.757 | 0.471 | EALDFYGEVKT [PTEN_Y155_R159K] | 1.19 | 0.719 | 0.722 | 0.53 | 0.823 | 0.78 | 1.56 | 1.2 | 1.15 | 1.6 | 0.409 | 0.844 | 1.21
26 | 0.99 | 0.501 | 0.74 | LKLWDYSRGRC [WDR5B_Y239] | 0.966 | 0.73 | 1.01 | 0.597 | 0.694 | 0.796 | 1.19 | 0.66 | 0.451 | 0.724 | 0.736 | 0.643 | 0.39
27 | 0.993 | 0.588 | 0.63 | DWWQEYVLNES [TGM1_Y267_R264W] | 2.11 | 0.831 | 0.817 | 1.61 | 0.97 | 0.678 | 1.51 | 0.563 | 0.515 | 1.55 | 0.403 | 0.777 | 4.1
28 | 0.697 | 0.518 | 0.523 | SVTCTYSPALK [TP53_Y126_N131K] | 0.97 | 0.407 | 0.567 | 0.407 | 0.602 | 0.353 | 1.02 | 0.467 | 0.498 | 0.866 | 0.405 | 0.839 | 0.557
29 | 1.02 | 0.65 | 0.488 | SGEKPYKCSEC [ZNF543_Y283] | 0.664 | 0.5 | 0.502 | 0.535 | 0.551 | 0.456 | 0.829 | 0.533 | 0.531 | 0.765 | 0.58 | 0.654 | 0.544
